In the Human Domainome abundance scans (Beltran et al. 2025):
± gives the uncertainty stated by the source.

B1: Intersectin-1, residues 909 to 971; numbered along this chain, Q15811 (parent)
chain: QGEKVEGLQAQALYPWRAKKDNHLNFNKNDVITVLEQQDMWWFGEVQGQKGWFPKSYVKLISG

Variants of: B1
Assay: abundance fitness (aPCA) (normalised: wild type 0, dead -1); higher = more abundant; growth selection in yeast, the domain comes from the species named
Details: Homo sapiens

Abundance fitness of substitutions, site by site:
Q37: M 0.323 ± 0.2, K 0.149 ± 0.28, E -0.159 ± 0.29, P -0.289 ± 0.18, V -0.588 ± 0.24, F -0.078 ± 0.46, T -0.052 ± 0.18, C -0.127 ± 0.17, I -0.286 ± 0.3, G -0.085 ± 0.1, S -0.294 ± 0.14, H -0.274 ± 0.31, A -0.036 ± 0.21, W -0.162 ± 0.16, R -0.06 ± 0.11, N -0.279 ± 0.22
Q38: S -0.148 ± 0.16, K -0.173 ± 0.17, M -0.061 ± 0.16, F -0.423 ± 0.24, A -0.463 ± 0.2, V -0.302 ± 0.12, E 0.008 ± 0.16, R 0.029 ± 0.12, P -0.313 ± 0.16, C -0.04 ± 0.18, W -0.286 ± 0.15, L -0.056 ± 0.21, G 0.026 ± 0.079
L35: A -0.612 ± 0.36, R -0.173 ± 0.14, E -0.243 ± 0.29, S -0.114 ± 0.19, V -0.34 ± 0.18, K 0.168 ± 0.26, F -0.284 ± 0.26, C 0.145 ± 0.36, Q -0.058 ± 0.24, G -0.033 ± 0.16, T -0.327 ± 0.45, M -0.019 ± 0.34, W 0.111 ± 0.19
I32: V -0.052 ± 0.062, R -0.766 ± 0.075, D -0.568 ± 0.19, H -0.692 ± 0.14, A -0.7 ± 0.11, K -0.965 ± 0.29, T -0.97 ± 0.18, G -0.658 ± 0.064, E -1.03 ± 0.3, M -0.446 ± 0.12, Q -1 ± 0.2, W -0.869 ± 0.2, L -0.23 ± 0.062, P -0.42 ± 0.21, F -0.423 ± 0.27
E36: H -0.235 ± 0.2, G -0.076 ± 0.093, A -0.026 ± 0.17, M -0.177 ± 0.22, Q -0.344 ± 0.34, L -0.094 ± 0.17, D -0.761 ± 0.41, K 0.017 ± 0.26, R -0.147 ± 0.12, Y -0.279 ± 0.24, V -0.044 ± 0.2, C -0.015 ± 0.37, T -0.149 ± 0.18, W -0.117 ± 0.12
D39: T -0.009 ± 0.2, G -0.014 ± 0.057, E -0.071 ± 0.15, Y -0.208 ± 0.27, H -0.454 ± 0.39, W -0.588 ± 0.16, F -0.313 ± 0.17, L -0.385 ± 0.17, S -0.127 ± 0.18, N -0.215 ± 0.15, K -0.268 ± 0.13, C -0.262 ± 0.24, R -0.182 ± 0.072, Q -0.328 ± 0.16, P -0.297 ± 0.15, V -0.304 ± 0.14, M -0.221 ± 0.18, A -0.014 ± 0.093
T33: Y -0.016 ± 0.29, N -0.233 ± 0.16, G -0.196 ± 0.046, F -0.242 ± 0.22, L -0.158 ± 0.16, K -0.1 ± 0.099, A -0.071 ± 0.069, P -0.897 ± 0.19, W -0.175 ± 0.072, M -0.068 ± 0.36, C -0.159 ± 0.11, S -0.104 ± 0.074, I -0.213 ± 0.17, D 0.086 ± 0.15, H -0.201 ± 0.39, E -0.089 ± 0.078, V -0.113 ± 0.46, R -0.034 ± 0.043
Q47: F 0.133 ± 0.2, K 0.027 ± 0.15, A 0.009 ± 0.084, W -0.125 ± 0.17, D -0.546 ± 0.2, L -0.254 ± 0.11, Y -0.113 ± 0.31, M -0.097 ± 0.1, S -0.167 ± 0.1, R -0.151 ± 0.088, T -0.014 ± 0.14, G -0.009 ± 0.073, V -0.097 ± 0.076, N -0.084 ± 0.34, C -0.332 ± 0.14, E 0.017 ± 0.12, P -0.293 ± 0.19
V34: W -0.524 ± 0.15, C -0.427 ± 0.28, G -0.455 ± 0.087, T -0.711 ± 0.22, P -0.646 ± 0.19, R -0.776 ± 0.12, I 0.221 ± 0.16, L -0.343 ± 0.083, Y -0.856 ± 0.44, E -0.549 ± 0.19, M -0.772 ± 0.3, S -0.424 ± 0.26
M40: L 0.008 ± 0.094, V -0.164 ± 0.1, Y -0.344 ± 0.26, P 0.025 ± 0.11, S 0.013 ± 0.12, W -0.475 ± 0.22, Q 0.052 ± 0.34, T -0.115 ± 0.13, C 0.084 ± 0.17, N 0.121 ± 0.17, F -0.233 ± 0.38, R -0.127 ± 0.1, K 0.144 ± 0.22, A -0.083 ± 0.09, G -0.109 ± 0.11, I 0.034 ± 0.17
K50: I -0.224 ± 0.21, W -0.255 ± 0.23, V -0.26 ± 0.12, Q -0.308 ± 0.17, N 0.014 ± 0.16, A -0.183 ± 0.1, C -0.113 ± 0.17, S -0.139 ± 0.11, R 0.056 ± 0.12, T -0.108 ± 0.15, M -0.177 ± 0.26, P -0.242 ± 0.28, E -0.052 ± 0.12, L -0.383 ± 0.14, F -0.208 ± 0.23, D -0.256 ± 0.2, H -0.271 ± 0.23
V31: R -0.03 ± 0.028, I 0.011 ± 0.035, S -0.224 ± 0.027, Q -0.102 ± 0.038, P -0.325 ± 0.036, M 0.003 ± 0.043, Y -0.058 ± 0.036, K -0.006 ± 0.045, W -0.132 ± 0.041, L -0.022 ± 0.028
W41: R -0.6 ± 0.092, P -0.94 ± 0.2, E -0.59 ± 0.17, I -0.815 ± 0.45, V -0.319 ± 0.14, A -0.489 ± 0.13, H -0.36 ± 0.2, K -0.427 ± 0.31, M -0.071 ± 0.085, T -0.659 ± 0.23, D -0.245 ± 0.13, C -0.318 ± 0.096, Y -0.053 ± 0.18, G -0.78 ± 0.28, L -0.252 ± 0.089, F -0.238 ± 0.18, Q -0.316 ± 0.15, N -0.154 ± 0.15, S -0.274 ± 0.085
E45: V -0.013 ± 0.1, W -0.274 ± 0.15, A -0.245 ± 0.12, L -0.076 ± 0.096, Q 0.067 ± 0.16, H 0.089 ± 0.21, K -0.222 ± 0.21, R -0.034 ± 0.12, F -0.055 ± 0.3, N -0.356 ± 0.3, S -0.039 ± 0.14, G -0.263 ± 0.11, I -0.192 ± 0.16, D -0.223 ± 0.26, C -0.117 ± 0.3, M -0.18 ± 0.17, Y 0.003 ± 0.26, T 0.073 ± 0.15
W42: R -0.767 ± 0.093, A -0.244 ± 0.073, L -0.088 ± 0.066, V -0.411 ± 0.07, K -1.18 ± 0.4, E -0.814 ± 0.12, M -0.192 ± 0.13, F -0.057 ± 0.17, G -0.734 ± 0.086, C -0.055 ± 0.12, S -0.667 ± 0.12, Q -0.837 ± 0.24, P -0.658 ± 0.14, D -0.429 ± 0.25, I -0.605 ± 0.29, Y 0.031 ± 0.15, T -0.527 ± 0.085
W52: M -0.804 ± 0.46, S -1.15 ± 0.41, A -0.708 ± 0.41, Q -0.776 ± 0.46, V -0.944 ± 0.25, K -0.375 ± 0.45, G -1.18 ± 0.39, I -0.458 ± 0.25, P -0.721 ± 0.27, R -1 ± 0.21, F -0.232 ± 0.4, T -0.89 ± 0.28
F43: G -0.596 ± 0.16, K -0.202 ± 0.11, P -0.808 ± 0.17, H 0.168 ± 0.47, N -0.427 ± 0.25, E -0.465 ± 0.12, W -0.061 ± 0.14, L -0.019 ± 0.09, T -0.811 ± 0.47, I -0.663 ± 0.48, D -0.997 ± 0.34, R -0.328 ± 0.086, C -0.563 ± 0.33, S -0.546 ± 0.13, M -0.107 ± 0.17, V -0.923 ± 0.18, Y -0.119 ± 0.29, A -0.696 ± 0.13
Q49: C 0.046 ± 0.16, G -0.005 ± 0.14, M -0.052 ± 0.21, R -0.031 ± 0.081, Y -0.303 ± 0.31, S -0.232 ± 0.14, K -0.483 ± 0.42, V -0.065 ± 0.098, H 0.045 ± 0.22, D -0.466 ± 0.3, I -0.208 ± 0.3, E 0.222 ± 0.29, N -0.403 ± 0.38
V46: S -0.001 ± 0.13, W -0.09 ± 0.13, T -0.155 ± 0.14, Y -0.287 ± 0.29, Q -0.279 ± 0.17, N -0.309 ± 0.3, K -0.051 ± 0.21, E -0.584 ± 0.13, I -0.11 ± 0.11, H 0.035 ± 0.2, L 0.079 ± 0.083, R -0.1 ± 0.082, F -0.101 ± 0.34, D -0.384 ± 0.31, M -0.048 ± 0.11, G -0.193 ± 0.073, C 0.012 ± 0.18, A 0.015 ± 0.078
G51: M -0.938 ± 0.45, D -0.793 ± 0.4, C -0.709 ± 0.32, R -0.89 ± 0.26, V -0.97 ± 0.27, S -0.988 ± 0.3, E -0.86 ± 0.29, A -0.408 ± 0.2
G44: V -1.1 ± 0.41, T -0.604 ± 0.28, C -0.79 ± 0.46, P -1.11 ± 0.41, A -1.03 ± 0.34, D -0.999 ± 0.4, W -1 ± 0.27
F53: K -0.962 ± 0.41, H -0.709 ± 0.49, Q -1.03 ± 0.42, E -0.858 ± 0.46, M -0.543 ± 0.47, L -0.701 ± 0.13, G -0.569 ± 0.29, R -0.951 ± 0.23
G48: W -0.939 ± 0.41, S -0.149 ± 0.097, H -0.381 ± 0.49, T -0.526 ± 0.22, E 0.011 ± 0.15, F -0.522 ± 0.36, A -0.208 ± 0.11, M -0.226 ± 0.17, C -0.361 ± 0.15, K -0.053 ± 0.18, L -0.259 ± 0.1, R -0.224 ± 0.094, P -0.604 ± 0.35, Q -0.38 ± 0.2, V -0.584 ± 0.12, Y -0.074 ± 0.21, D -0.061 ± 0.18
